According to EP4803539A2:

What was measured:
[1] = molecular target: antigen of the 'Antigen binding ELISA' (not given); experiment: Antigen binding ELISA of stability sample; F18 with 10 mM methionine; initial
[2] = molecular target: antigen of the 'Antigen binding ELISA' (not given); experiment: Antigen binding ELISA of stability sample; F18 with methionine; initial (repeated from Table 41A)
[3] = molecular target: antigen of the 'Antigen binding ELISA' (not given); experiment: Antigen binding ELISA of stability sample; F15 without methionine; initial
[4] = molecular target: antigen of the 'Antigen binding ELISA' (not given); experiment: Antigen binding ELISA of stressed sample; F18; initial (repeated from Table 41A)
[5] = molecular target: antigen of the 'Antigen binding ELISA' (not given); experiment: Antigen binding ELISA of stability sample; F0; initial (repeated from Table 37)
[6] = molecular target: antigen of the 'Antigen binding ELISA' (not given); experiment: Antigen binding ELISA of stressed sample; F18; 25 °C 1000 lx 7 days
[7] = molecular target: antigen of the 'Antigen binding ELISA' (not given); experiment: Antigen binding ELISA of stability sample; F0; 5 °C 2 months (same value as Table 37)
[8] = molecular target: antigen of the 'Antigen binding ELISA' (not given); experiment: Antigen binding ELISA of stability sample; F15; 25 °C 1 month
[9] = molecular target: antigen of the 'Antigen binding ELISA' (not given); experiment: Antigen binding ELISA of stressed sample; F15; initial (repeated from Table 37)
[10] = molecular target: antigen of the 'Antigen binding ELISA' (not given); experiment: Antigen binding ELISA of stability sample; F18 with methionine; 5 °C 2 months
[11] = molecular target: antigen of the 'Antigen binding ELISA' (not given); experiment: Antigen binding ELISA of stability sample; F18; 25 °C 2 months
[12] = molecular target: antigen of the 'Antigen binding ELISA' (not given); experiment: Antigen binding ELISA of stability sample; F15 without methionine; initial (same value as Table 37)
[13] = molecular target: antigen of the 'Antigen binding ELISA' (not given); experiment: Antigen binding ELISA of stressed sample; F15; 25 °C 1000 lx 7 days
[14] = molecular target: antigen of the 'Antigen binding ELISA' (not given); experiment: Antigen binding ELISA of stability sample; F0; 25 °C 1 month
[15] = molecular target: antigen of the 'Antigen binding ELISA' (not given); experiment: Antigen binding ELISA of stressed sample; F15; 3 freeze-thaw cycles
[16] = molecular target: antigen of the 'Antigen binding ELISA' (not given); experiment: Antigen binding ELISA of stability sample; F18; 25 °C 1 month
[17] = molecular target: antigen of the 'Antigen binding ELISA' (not given); experiment: Antigen binding ELISA of stressed sample; F18; 25 °C dark 7 days
[18] = molecular target: antigen of the 'Antigen binding ELISA' (not given); experiment: Antigen binding ELISA of stressed sample; F18; 3 freeze-thaw cycles
[19] = molecular target: antigen of the 'Antigen binding ELISA' (not given); experiment: Antigen binding ELISA of stability sample; F0; 25 °C 2 months
[20] = molecular target: antigen of the 'Antigen binding ELISA' (not given); experiment: Antigen binding ELISA of stressed sample; F15; 25 °C dark 7 days
[21] = molecular target: antigen of the 'Antigen binding ELISA' (not given); experiment: Antigen binding ELISA of stability sample; F15 without methionine; 5 °C 2 months (same value as Table 37)
[22] = molecular target: antigen of the 'Antigen binding ELISA' (not given); experiment: Antigen binding ELISA of stability sample; F15; 25 °C 2 months

BAN2401 (antibody)
ELISA (Antigen binding ELISA), report result [1]: 108%
ELISA (Antigen binding ELISA), report result [2]: 108%
ELISA (Antigen binding ELISA), report result [3]: 102%
ELISA (Antigen binding ELISA), report result [4]: 108%
ELISA (Antigen binding ELISA), report result [5]: 101%
ELISA (Antigen binding ELISA), report result [6]: 109%
ELISA (Antigen binding ELISA), report result [7]: 103%
ELISA (Antigen binding ELISA), report result [8]: 104%
ELISA (Antigen binding ELISA), report result [9]: 102%
ELISA (Antigen binding ELISA), report result [10]: 118%
ELISA (Antigen binding ELISA), report result [11]: 97.8%
ELISA (Antigen binding ELISA), report result [12]: 102%
ELISA (Antigen binding ELISA), report result [13]: 101%
ELISA (Antigen binding ELISA), report result [14]: 103%
ELISA (Antigen binding ELISA), report result [15]: 108%
ELISA (Antigen binding ELISA), report result [16]: 97%
ELISA (Antigen binding ELISA), report result [17]: 105%
ELISA (Antigen binding ELISA), report result [18]: 106%
ELISA (Antigen binding ELISA), report result [19]: 91.8%
ELISA (Antigen binding ELISA), report result [20]: 107%
ELISA (Antigen binding ELISA), report result [21]: 123%
ELISA (Antigen binding ELISA), report result [22]: 96.9%
